This note sets out measurements from patent US20150266956A1 (UNIVERSITY OF ROCHESTER, published 2015).

The target in the assay is T1, murine DC-STAMP (dendritic cell-specific transmembrane protein) (mouse, UniProt Q7TNJ0 1-470).
T1 construct: whole, on cells; Endogenous protein; In the immunoprecipitation and immunoblot it came from cell lysates (about 50 kDa reduced, about 100 kDa non-reduced); also called mouse DC-STAMP
T1 sequence (looked up): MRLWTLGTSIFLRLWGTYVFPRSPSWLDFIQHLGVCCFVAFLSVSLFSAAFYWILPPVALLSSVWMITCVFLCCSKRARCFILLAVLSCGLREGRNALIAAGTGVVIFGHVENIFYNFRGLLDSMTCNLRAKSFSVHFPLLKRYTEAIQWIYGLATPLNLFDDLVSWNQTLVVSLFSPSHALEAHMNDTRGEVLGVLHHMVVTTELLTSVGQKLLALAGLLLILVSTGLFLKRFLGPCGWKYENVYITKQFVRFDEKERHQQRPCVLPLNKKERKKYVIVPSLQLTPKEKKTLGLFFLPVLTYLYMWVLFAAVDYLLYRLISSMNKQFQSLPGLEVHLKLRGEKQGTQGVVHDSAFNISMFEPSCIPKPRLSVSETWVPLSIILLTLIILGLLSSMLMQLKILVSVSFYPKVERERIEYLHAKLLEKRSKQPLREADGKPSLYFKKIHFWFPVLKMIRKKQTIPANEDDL
Put plainly: immunoprecipitation and immunoblot of RANKL-treated CD11b+ RAW 264.7 cell lysate (FIG. 1A). How it is done: After immunoprecipitation with the 1A2 mAb, immunoblotting was performed with either the 1A2 mAb, the KR104 rabbit polyclonal antibody (positive control), or an anti-mouse IgG antibody (negative control) under non-reducing (nr: −β-mercaptoethanol) or reducing (r: +β-mercaptoethanol) conditions. M: protein marker, black and white scanned overlay. Blot is representative of 4 separate trials. […] Numbers below bands represent densitometry values used as a semiquantitative measure of relative protein level. Blot is representative of 2 separate trials.
To study surface protein expression, a mAb was generated against a peptide in the fourth extracellular domain of DC-STAMP. For comparison, a polyclonal DC-STAMP antibody was used that has histologically shown surface expression on OC (Kukita et al., J. Exp. Med. 200:941-6 (2004)). CD11b+ cells were cultured for 2 days with RANKL and extracted membrane fraction proteins for immunoprecipitation with the 1A2 mAb. […] Both antibodies also recognize a protein at double the molecular weight (˜100 kDa) under non-reducing (nr) conditions. In both reducing and non-reducing conditions, the 1A2 DC-STAMP mAb has a more intense band for the same amount of protein loaded in each lane. […] The 1A2 mAb clone was conjugated to FITC and used to determine if surface membrane DC-STAMP on CD11b+ cells could be detected by flow cytometry.
(In general: Immunoblotting shows a protein as a band on a membrane.)

B1: DC-STAMP monoclonal antibody 1A2 (antibody, V domains shown)
VH: QVTLKESGPGILQPSQTLSLTCSFSGFSLSTFGMGVGWIRQPSGKGLEWLAHIWWDDDKYYSPALKSRLTISKDTSKNQVFLKIANVDTADTATYYCVRIGSRSPFAYWGPGTLVTVSS
VL: DIVMTQAAFSNPVTLGTSASISCRSSKSLLHSNGITYLYWYLQKPGQSPQVLIYQMSNLASGVPDRFSSSGSGTDFTLRISRVEAEDVGVYYCAQNLELPWTFGGGTKLEIKR
notes: The antibody was FITC-conjugated for flow cytometry and immunofluorescence; also called 1A2 mAb; clone 1A2
As to B1, the binding result is “binds”.
